From patent US20240158515A1, “ANTI-FGFR3 ANTIBODIES AND ANTIGEN-BINDING FRAGMENTS AND METHODS OF USE THEREOF” (Regeneron Pharmaceuticals, Inc., priority 2022, published 2024)

Key:
[1] = target: T1, hFGFR3c-hFc binding to hFGF acidic protein (Homo sapiens, UniProt P22607); assay: ELISA blocking of hFGFR3c-hFc binding to hFGF acidic
T1 construct: hFGFR3c extracellular domain (amino acids Glu23-Gly375); purchased R&D Systems 766-FR-050
T1 sequence (P22607 23-375): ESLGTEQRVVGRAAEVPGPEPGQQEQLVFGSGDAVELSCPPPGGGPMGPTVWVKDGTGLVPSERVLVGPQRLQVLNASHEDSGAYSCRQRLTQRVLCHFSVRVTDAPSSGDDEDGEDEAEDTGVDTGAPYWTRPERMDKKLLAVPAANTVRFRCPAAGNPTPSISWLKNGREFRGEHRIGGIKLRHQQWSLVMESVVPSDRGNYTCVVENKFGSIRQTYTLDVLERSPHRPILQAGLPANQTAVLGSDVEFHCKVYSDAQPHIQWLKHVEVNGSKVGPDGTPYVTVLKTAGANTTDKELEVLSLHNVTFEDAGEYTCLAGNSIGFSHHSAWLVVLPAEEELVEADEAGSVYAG
From the text: (§1) An ELISA-based blocking assay was developed to determine the ability of anti-FGFR3 antibodies to block the binding of human fibroblast growth factor receptor 3 isoform b (hFGFR3b) or human fibroblast growth factor receptor 3 isoform c (hFGFR3c) to human fibroblast growth factor acidic (hFGF acidic) or basic (hFGF basic) ligands.
(§2) The human FGFR3b recombinant protein used in the experiments had the hFGFR3b extracellular domain (amino acids E23-G377) expressed with the Fc portion of the mouse IgG2a at the C-terminus (amino acids E98-K330) (hFGFR3b-mFc, accession #NM_001163213.1). The hFGFR3c and hFGF acidic proteins were purchased commercially. […]
(§3) In the blocking assay, a 96-well microtiter plate was coated with either hFGF acidic or hFGF basic proteins at […] in PBS+10 mg/ml heparin overnight at 4° C. […] After a 1 hour incubation at room temperature, plates were washed, and plate-bound hFGFR3b-mFc or hFGFR3c-hFc proteins were detected with horseradish peroxidase (HRP) conjugated goat anti-mouse or goat anti-human Fcγ fragment specific antibodies. The plates were then developed using TMB substrate solution (BD Biosciences) according to the manufacturer's recommended procedure and absorbance at 450 nm was measured on a Victor X5 plate reader.
(§4) Binding data were analyzed using a sigmoidal (four-parameter logistic) dose-response model using GraphPad Prism software. […]

[2] = target: T2, hFGFR3c-hFc binding to hFGF basic protein (Homo sapiens, UniProt P22607); assay: ELISA blocking of hFGFR3c-hFc binding to hFGF basic
T2 construct: hFGFR3c extracellular domain (amino acids Glu23-Gly375); purchased R&D Systems 766-FR-050
T2 sequence (P22607 23-375): T1 sequence (P22607 23-375)
From the text: as §1, §2, §3, §4

[3] = target: T3, human FGFR3b (hFGFR3b.mmH, REGN3152) (Homo sapiens, UniProt P22607); assay: Biacore SPR binding kinetics, monomeric human FGFR3b to captured antibodies; settings: 25° C.
T3 construct: REGN3152 (human FGFR3b expressed with a C-terminal myc-myc-hexahistidine tag)
T3 sequence (P22607 with tags, fused parts or gaps isoform P22607-2): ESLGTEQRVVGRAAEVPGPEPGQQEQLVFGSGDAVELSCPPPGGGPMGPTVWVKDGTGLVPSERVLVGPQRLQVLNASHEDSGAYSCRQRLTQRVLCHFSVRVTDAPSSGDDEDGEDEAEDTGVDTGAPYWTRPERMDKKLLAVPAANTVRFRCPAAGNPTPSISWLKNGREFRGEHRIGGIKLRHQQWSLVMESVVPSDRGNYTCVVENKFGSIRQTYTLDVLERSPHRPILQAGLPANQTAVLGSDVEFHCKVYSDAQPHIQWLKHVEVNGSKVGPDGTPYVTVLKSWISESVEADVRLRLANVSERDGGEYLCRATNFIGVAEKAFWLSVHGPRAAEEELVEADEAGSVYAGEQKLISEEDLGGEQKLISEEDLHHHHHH
Method: (§5) Biacore binding kinetics of anti-FGFR3 antibodies, in an antibody capture format, to monomeric human FGFR3b, cynomolgus FGFR3b, murine FGFR3b, human FGFR3c, and dimeric human FGFR3b ecto domain recombinant proteins at 25° C. were analyzed.
(§6) Equilibrium dissociation constants (KD values) for human FGFR3b expressed with a C-terminal myc-myc-hexahistidine tag (hFGFR3b.mmH, REGN3152) or cynomolgus FGFR3b expressed with a C-terminal myc-myc-hexahistidine tag (mfFGFR3b.mmH, REGN3521), or murine FGFR3b expressed with a C-terminal myc-myc-hexahistidine tag (mFGFR3b.mmH, REGN3215) or human FGFR3c expressed with a C-terminal myc-myc-hexahistidine tag (hFGFR3c.mmH, REGN3155) or human FGFR3b expressed with an C-terminal murine Fc tag (hFGFR3b.mFc, REGN3153) binding to purified anti-FGFR3 antibodies were determined using a real-time surface plasmon resonance biosensor technology using a Biacore 3000 or Biacore 4000 instrument. […] Antibody-reagent association was monitored for 5 minutes while dissociation in HBS-EP running buffer was monitored for 10 minutes. […]
(§7) The specific SPR-Biacore sensorgrams were obtained by a double referencing procedure. […] Kinetic association (ka) and dissociation (kd) rate constants were determined by fitting the real-time sensorgrams to a 1:1 binding model using Scrubber v2.0c curve fitting software. […]

[4] = target: T4, human FGFR3c (hFGFR3c.mmH, REGN3155) (Homo sapiens, UniProt P22607); assay: Biacore SPR binding kinetics, monomeric human FGFR3c to captured antibodies; settings: 25° C.
T4 construct: REGN3155 (human FGFR3c expressed with a C-terminal myc-myc-hexahistidine tag)
T4 sequence (P22607 with tags, fused parts or gaps): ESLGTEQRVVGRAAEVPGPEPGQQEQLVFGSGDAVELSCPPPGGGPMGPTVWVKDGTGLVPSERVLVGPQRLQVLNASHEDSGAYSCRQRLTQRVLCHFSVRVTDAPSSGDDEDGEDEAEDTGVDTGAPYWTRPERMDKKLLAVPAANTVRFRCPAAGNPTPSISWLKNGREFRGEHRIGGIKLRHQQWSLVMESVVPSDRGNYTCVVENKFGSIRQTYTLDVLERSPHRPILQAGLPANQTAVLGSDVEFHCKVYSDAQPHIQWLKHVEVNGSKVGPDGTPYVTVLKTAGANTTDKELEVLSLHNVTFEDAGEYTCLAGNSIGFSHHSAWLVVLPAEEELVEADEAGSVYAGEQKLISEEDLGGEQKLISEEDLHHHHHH
Method: as §5, §6, §7

[5] = system: CD73 protein level in UMUC14 cells; assay: CD73 expression in UMUC14 cells in vitro, Western blot; type: cell-based; settings: 1 nM, 10 nM, 100 nM, 48 hrs, FIG. 6
Method: To investigate the effect of anti-FGFR3 antibody or tyrosine kinase inhibitor (AZD4547; commercially available) on CD73 expression, UMUC14 bladder cancer cells were seeded in 6 well tissue culture plate (Corning) in complete medium (MEM medium with 10% FBS, 1% Non-Essential Amino Acids, Pen/Strep) and cultured overnight at 37° C. 5% CO2. Cells were then treated with antibodies or inhibitors at indicated concentration (100 nM, 10 nM or 1 nM) for 48 hrs. Cells were washed with pre-chilled PBS and collected in lysis buffer containing protease and phosphatase inhibitors. Equal amount of cell lysates were analyzed by SDS-PAGE. Blots were blocked in 0.5% Tween 20 in Tris buffered saline (TBS) containing 5% non-fat dry milk followed by overnight incubation with anti-CD73 primary antibody (Cell Signaling Technology). After washing 3× with TBST and incubation with secondary antibody, membranes were developed with SuperSignal West Pico or Femto substrate and luminescence images were captured with a C300 imager (Azure Biosystems).

[6] = system: BaF3 cells expressing FGFR3 S249C/V557L; assay: BaF3 proliferation assay, FGFR3 S249C/V557L; type: cell-based, murine; settings: FIG. 12A right
Method: (§8) IL-3 dependent murine pro B cell line BaF3 cells were engineered to stably express full length human FGFR3b S249C, V557L, V557M, S249C/V557L, S249C/V557M (accession number for WT FGFR3b NP_001156685.1, amino acids M1-T808). Cells were maintained in RPMI 1640+10% FBS+P/S/G+1 ng/ml mouse IL-3+500 ug/ml Neomycin; 37° C. 5% CO2. For proliferation assays, cells were washed with IL-3-free culture media and plated at 10^5 cells/well into 96-well black wall tissue culture plates. Cells were treated with 1:3 serially diluted antibody as indicated in the presence or absence of 5 μg/ml heparin and 1 nM human FGF1. After addition of antibodies, cells were incubated at 37° C./5% CO2 for 72 h followed by the addition of an equal volume of CellTiter-Glo™ (Promega) reagent to lyse cells and detect luciferase activity. Luminescence signal was quantitated with Envision plate reader (PerkinElmer). EC50 values of the antibodies were determined using GraphPad Prism software.

[7] = system: BaF3 cells expressing FGFR3 S249C/V557M; assay: BaF3 proliferation assay, FGFR3 S249C/V557M; type: cell-based, murine; settings: FIG. 12B
Method: as §8

[8] = system: CD73 protein level in Fadu S249C tumors; assay: CD73 expression in Fadu S249C tumors in vivo, Western blot; set-up: species or system SCID mice; settings: FGFR3 mAb 15 mg/kg one intraperitoneal dose; AZD4547 25 mg/kg daily gavage; FIG. 11A-11B
Method: To test the effect of anti-FGFR3 inhibitory antibody or tyrosine kinase inhibitor (AZD4547) on CD73 expression in vivo, tumor cells (5×10^6 UMUC14, 3×10^6 Fadu EV or S249C, in 50% Matrigel) were implanted subcutaneously into the right flank of 6 to 8-week-old female SCID mice (Jackson Laboratory). Once tumors were established (˜200 mm^3 in volume), mice were randomized into treatment groups (n=5-6 mice per group) and injected intraperitoneally once with anti-FGFR3 antibodies (15 mg/kg) or isotype control. Tyrosine kinase inhibitor AZD4547 (25 mg/kg) was administered once daily by oral gavage for 3 days. Tumors were collected 4 days post treatment initiation. Tumors were collected, snap frozen and lysed in RIPA buffer. Equal amount of tumor lysates were analyzed by SDS-PAGE and blotted with anti-CD73 and anti-FGFR3 antibodies as described above. Membranes were developed with SuperSignal West Pico or Femto substrate and luminescence images were captured with a C300 imager (Azure Biosystems). Intensity of each CD73 and actin band was quantitated using Image J (NIH), and the ratio of CD73/actin for each sample were graphed using Prism Graphpad.

[9] = system: BaF3 cells expressing FGFR3 S249C; assay: BaF3 proliferation assay, FGFR3 S249C (TKI resistance study); type: cell-based, murine; settings: 72 h, CellTiter-Glo, FIG. 12A left; read-out: IC50, growth of BaF3 cells expressing FGFR3 S249C
Method: as §8

Substance	Antibody blocking 0.4 nM hFGFR3c-hFc binding to hFGF acidic protein, % Blocking at 200 nM mAb [1] [%]	Antibody blocking 7 nM hFGFR3c-hFc binding to hFGF basic protein, % Blocking at 200 nM mAb [2] [%]	ka [3] [M⁻¹ s⁻¹]	kd [3] [s⁻¹]	ka [4] [M⁻¹ s⁻¹]	kd [4] [s⁻¹]	CD73 expression in UMUC14 cells in vitro (in words) [5]	growth inhibition of BaF3 cells expressing FGFR3 S249C+V557L (in words) [6]	growth inhibition of BaF3 cells expressing FGFR3 S249C+V557M (in words) [7]	CD73 expression in Fadu S249C tumors in vivo (in words) [8]	IC50 [9] [nM]
REGN6331: comparator; relates to FGFR3b mAb, hIgG1 (mAb 184.6.1 N54S, Genentech); HC SEQ ID NO: 244, LC SEQ ID NO: 243 [reference compound]	86	87	883000	0.000616	544000	0.00132					
AZD4547 [reference compound]							dose dependent downregulation of CD73 expression	ineffective	ineffective	decreased expression of CD73 relative to mice treated with control	9.9
